Columns and labels:
[1] = target: human Y1 receptor (human) (UniProt P25929); assay: cell-based or functional assay
[2] = target: human Y4 receptor (human) (UniProt P50391); assay: cell-based or functional assay
Chain of human Y4 receptor (human) (P50391 whole entry): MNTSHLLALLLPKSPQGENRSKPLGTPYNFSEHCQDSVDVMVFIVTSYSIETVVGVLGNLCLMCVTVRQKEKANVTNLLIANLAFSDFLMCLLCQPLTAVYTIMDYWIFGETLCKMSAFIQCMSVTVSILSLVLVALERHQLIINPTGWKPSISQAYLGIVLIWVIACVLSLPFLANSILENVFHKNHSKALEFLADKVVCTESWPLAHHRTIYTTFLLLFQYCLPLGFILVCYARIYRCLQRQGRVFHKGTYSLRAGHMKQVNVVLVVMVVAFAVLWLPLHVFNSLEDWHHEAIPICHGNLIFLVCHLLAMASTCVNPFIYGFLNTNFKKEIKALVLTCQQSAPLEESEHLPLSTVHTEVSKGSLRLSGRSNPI

Chain of human Y1 receptor (human) (P25929 whole entry): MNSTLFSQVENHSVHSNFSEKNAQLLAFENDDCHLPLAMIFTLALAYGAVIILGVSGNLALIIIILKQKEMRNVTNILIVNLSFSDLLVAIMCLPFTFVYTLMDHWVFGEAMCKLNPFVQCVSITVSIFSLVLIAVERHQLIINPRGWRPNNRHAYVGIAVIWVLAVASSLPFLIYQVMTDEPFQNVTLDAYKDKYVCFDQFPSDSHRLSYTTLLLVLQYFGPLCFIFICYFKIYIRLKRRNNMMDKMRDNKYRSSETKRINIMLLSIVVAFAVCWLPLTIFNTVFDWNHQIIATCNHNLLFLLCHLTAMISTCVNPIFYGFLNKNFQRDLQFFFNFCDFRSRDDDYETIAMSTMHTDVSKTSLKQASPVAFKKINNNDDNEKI

Substance	EC50, Actone functional potency assay [1] [µM]	EC50, Actone functional potency assay [2] [µM]
4-N{alpha}-(3-Methylbutanoyl)-7-N{Epsilon}-[2-[2-[2-[[2-[2-[2-[[(4S)-4-carboxy-4-(16-sulfohexadecanoylamino)-butanoyl]amino]ethoxy]ethoxy]acetyl]amino]ethoxy]-ethoxy]acetyl]-[Arg4,Lys7,Gln18,Trp30,NMeArg35]hPYY(4-36) (peptide)	> 1	
4-N{alpha}-(3-Methylbutanoyl)-7-N{Epsilon}-[4-[3-[2-[2-[3-[[4-[3-[2-[2-[3-[[(4S)-4-carboxy-4-(16-sulfohexadecanoylamino)butanoyl]amino]propoxy]ethoxy]-ethoxy]propylamino]-4-oxobutanoyl]amino]propoxy]ethoxy]ethoxy]propylamino]-4-oxobutanoyl]-[Arg4,Lys7,Gln18,Trp30,NMeArg35]hPYY(4-36) (peptide)	> 1	
4-N{alpha}-(3-Methylbutanoyl)-7-N{Epsilon}-[2-[2-[2-[[2-[2-[2-[[(4S)-4-carboxy-4-(14-sulfotetradecanoylamino)butanoyl]amino]ethoxy]ethoxy]acetyl]]amino]ethoxy]-ethoxy]acetyl]-[Arg4,Lys7,Gln18,Trp30,NMeArg35]hPYY(4-36) (peptide)	> 1	
4-N{alpha}-(3-Methylbutanoyl)-7-N{Epsilon}-[2-[2-[2-[[2-[2-[2-[[(4S)-4-carboxy-4-(16-carboxy-hexadecanoylamino)butanoyl]amino]ethoxy]ethoxy]acetyl]]amino]ethoxy]-ethoxy]acetyl]-[Arg4,Lys7,Gln18,Trp30,NMeArg35]hPYY(4-36) (peptide)	> 1	
7-N{Epsilon}-[2-[2-[2-[[2-[2-[2-[[2-[2-[2-[[2-[2-[2-[4-[16-(1H-tetrazol-5-yl)-hexadecanoylsulfamoyl]butanoylamino]ethoxy]ethoxy]acetyl]amino]ethoxy]-ethoxy]acetyl]amino]ethoxy]ethoxy]acetyl]amino]ethoxy]ethoxy]acetyl]-[Lys7,Gln18,Trp30,NMeArg35]hPYY(3-36) (peptide)	> 1	
4-N{alpha}-(3-Methylbutanoyl)-7-N{Epsilon}-[(2S)-2-amino-6-[[2-[2-[2-[[(4S)-4-carboxy-4-(16-sulfohexadecanoylamino)butanoyl]amino]ethoxy]ethoxy]acetyl]-amino]hexanoyl]]-[Arg4,Lys7,Gln18,Trp30,NMeArg35]hPYY(4-36) (peptide)	> 1	
7-N{Epsilon}-[2-[2-[2-[[2-[2-[2-[[(4S)-4-carboxy-4-(16-sulfohexadecanoylamino)-butanoyl]amino]ethoxy]ethoxy]acetyl]amino]ethoxy]ethoxy]acetyl]-[Arg4,Lys7,Gln18, Trp30,NMeArg35]hPYY(3-36) (peptide)	> 1	
4-N{alpha}-(3-Methylbutanoyl)-7-N{Epsilon}-[2-[2-[2-[[2-[2-[2-[[2-[2-[2-[[(4S)-4-carboxy-4-(16-sulfohexadecanoylamino)butanoyl]amino]ethoxy]ethoxy]acetyl]-amino]ethoxy]ethoxy]acetyl]amino]ethoxy]ethoxy]acetyl]-[Arg4,Lys7,Gln18,Trp30,NMeArg35]hPYY(4-36) (peptide)	> 1	
4-N{alpha}-(hexanoyl)-7-N{Epsilon}-[2-[2-[2-[[2-[2-[2-[[(4S)-4-carboxy-4-(16-sulfohexadecanoylamino)butanoyl]amino]ethoxy]ethoxy]acetyl]amino]ethoxy]-ethoxy]acetyl]-[Arg4,Lys7,Gln18,Trp30,NMeArg35]hPYY(4-36) (peptide)	> 1	
4-N{alpha}-(3-Methylbutanoyl)-7-N{Epsilon}-[2-[2-[2-[[2-[2-[2-[[(4S)-4-carboxy-4-(16-sulfohexadecanoylamino)-butanoyl]amino]ethoxy]ethoxy]acetyl]amino]ethoxy]-ethoxy]acetyl]-[Arg4,Lys7,D-isoAsp11,Gln18,Trp30,NMeArg35]hPYY(4-36) (peptide)		> 1
4-N{alpha}-(3-methyl-pentanoyl)-7-N{Epsilon}-[2-[2-[2-[[2-[2-[2-[[(4S)-4-carboxy-4-(16-sulfohexadecanoylamino)butanoyl]amino]ethoxy]ethoxy]acetyl]amino]-ethoxy]ethoxy]acetyl]-[Lys7,Gln18,Trp30,NMeArg35]hPYY(4-36) (peptide)	> 1	
4-N{alpha}-(3-Methylbutanoyl)-7-N{Epsilon}-[2-[2-[2-[[2-[2-[2-[[(4S)-4-carboxy-4-(15-carboxypentadecanoylamino)butanoyl]amino]ethoxy]ethoxy]acetyl]amino]-ethoxy]ethoxy]acetyl]-[Arg4,Lys7,Gln18,Trp30,NMeArg35]hPYY(4-36) (peptide)	> 1	
4-N{alpha}-(3-Methylbutanoyl)-7-N{Epsilon}-[2-[2-[2-[[2-[2-[2-[[(4S)-4-carboxy-4-[[(4S)-4-carboxy-4-(16-sulfohexadecanoylamino)butanoyl]amino]butanoyl]amino]-ethoxy]ethoxy]acetyl]amino]ethoxy]ethoxy]acetyl]-[Lys7,Gln18,Trp30,NMeArg35] hPYY(4-36) (peptide)		> 1
4-N{alpha}-(3-Methylbutanoyl)-7-N{Epsilon}-[2-[2-[2-[[2-[2-[2-[[(4S)-4-carboxy-4-(16-sulfohexadecanoylamino)butanoyl]amino]ethoxy]ethoxy]acetyl]amino]-ethoxy]ethoxy]acetyl]-[Lys7,Gln18,Trp30,NMeArg35]hPYY(4-36) (peptide)	> 1	> 1
4-N{alpha}-(3-Methylbutanoyl)-7-N{Epsilon}-[4-[3-[2-[2-[3-[[(4S)-4-carboxy-4-(16-sulfohexadecanoylamino)butanoyl]amino]propoxy]ethoxy]ethoxy]propylamino]-4-oxobutanoyl]-[Arg4,Lys7,Gln18,Trp30,NMeArg35]hPYY(4-36) (peptide)	> 1	
7-N{Epsilon}-[2-[2-[2-[[2-[2-[2-[[(4S)-4-carboxy-4-(16-sulfohexadecanoylamino)-butanoyl]amino]ethoxy]ethoxy]acetyl]amino]ethoxy]ethoxy]acetyl]-[Lys7,Gln18, Trp30,NMeArg35]hPYY(3-36) (peptide)	> 1	
4-N{alpha}-(3-Methylbutanoyl)-7-N{Epsilon}-[2-[2-[2-[[2-[2-[2-[[(4S)-4-carboxy-4-(14-carboxy-tetracanoylamino)butanoyl]amino]ethoxy]ethoxy]acetyl]]amino]ethoxy]-ethoxy]acetyl]-[Arg4,Lys7,Gln18,Trp30,NMeArg35]hPYY(4-36) (peptide)	> 1	
4-N{alpha}-(3-Methylbutanoyl)-7-N{Epsilon}-[2-[2-[2-[[2-[2-[2-[[(4S)-4-carboxy-4-(17-carboxyheptadecanoylamino)butanoyl]amino]ethoxy]ethoxy]acetyl]amino]ethoxy]-ethoxy]acetyl]-[Arg4,Lys7,Gln18,Trp30,NMeArg35]hPYY(4-36) (peptide)	> 1	

Reference: patent publication US20150152150A1
